Measurements from CN115991785A (SHANGHAI MIAOJU BIOTECHNOLOGY CO LTD; UNIV SHANGHAI JIAOTONG, dated 2023).

Experiments:
[1] = target: T1, MATN3-Fc抗原 (MATN3-Fc antigen) (human, UniProt O15232 29-486, limits assumed); experiment: SPR (Biacore, CM5 chip, amine coupling, 1:1 binding model)
T1 construct: not shown: Fc part
T1 sequence (looked up): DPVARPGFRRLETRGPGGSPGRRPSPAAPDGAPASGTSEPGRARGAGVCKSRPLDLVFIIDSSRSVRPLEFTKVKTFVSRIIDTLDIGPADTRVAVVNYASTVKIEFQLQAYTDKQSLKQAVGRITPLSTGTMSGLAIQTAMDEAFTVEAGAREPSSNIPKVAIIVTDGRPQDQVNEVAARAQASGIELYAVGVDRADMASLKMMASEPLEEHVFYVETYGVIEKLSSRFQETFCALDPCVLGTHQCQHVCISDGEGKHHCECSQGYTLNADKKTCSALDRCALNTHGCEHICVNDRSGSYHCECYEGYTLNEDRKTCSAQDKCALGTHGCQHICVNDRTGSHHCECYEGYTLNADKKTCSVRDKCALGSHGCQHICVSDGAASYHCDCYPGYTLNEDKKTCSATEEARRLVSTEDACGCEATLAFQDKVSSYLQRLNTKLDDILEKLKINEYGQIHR

[2] = target: CD34-Fc抗原 (CD34-Fc antigen); experiment: as above
Sequence of CD34-Fc抗原 (CD34-Fc antigen) (P28906 32-290): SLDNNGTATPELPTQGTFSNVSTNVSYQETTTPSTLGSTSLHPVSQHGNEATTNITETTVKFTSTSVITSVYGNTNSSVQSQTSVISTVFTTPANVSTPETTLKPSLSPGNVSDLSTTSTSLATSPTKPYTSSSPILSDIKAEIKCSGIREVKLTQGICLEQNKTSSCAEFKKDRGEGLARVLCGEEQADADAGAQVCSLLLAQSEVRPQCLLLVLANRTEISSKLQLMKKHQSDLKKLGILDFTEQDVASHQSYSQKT

B1: CD34×MATN3双特异性抗体 (CD34×MATN3 bispecific antibody, IgG1-scFv form) (bispecific antibody)
chain 1: EIQLQQSGPELMKPGASVKISCKASGYSFTSYYMHWVKQSQGKSLEWIGFIDPFNGGITYNQKFKGKATLTVDRSSSTAYMHLRSLTSEDSAVYYCARCYYNYDDEGRAMDYWGQGTSVTVSS
chain 2: DIQMTQSPSSLSASLGERVSLTCRASQDIGSSLNWLQQGPDGTFKRLIYATSSLDSSVPKRFSGSRSGSDYSLTISSLESEDFVDYYCLQYASSPYTFGGGTKLEIKR
chain 3: EVQLVQSGAEVKKPGASVKVSCKASGGTFSSYAISWVRQAPGQGLEWMGGIIPIFGTANYAQKFQGRVTITADKSTSTAYMELSSLRSEDTAVYYCARGQGYWFDPWGQGTLVTVSS
chain 4: DVQLTQSPSSLSASVGDRVTITCQASQDISNYLNWYQQKPGKAPKLLIYDASNLETGVPSRFSGSGSGTDFTFTISSLQPEDIATYYCQQYDNLPLTFGGGTKLEIKR
[1]
  Kd: 0.00895 nM
[2]
  Kd: 8.53 nM
